Substitutions are numbered along the chain they refer to. In names and notes the source's numbering stands.
B1: H240-Kn061/H240-Hl134/L73-k0 (antibody, human IgG1, kappa)
heavy 1: QDQLVQSGAEVKKPGASVKVSCKASGFNIKDTYIQWVRQAPGQGLEWMGRIDPLRKQTKYREKFEGRVTITADTSTNTAYMELSSLRSEDTAVYYCVRSGREFDYWGQGTLVTVSSASTKGPSVFPLAPSSKSTSGGTAALGCLVKDYFPEPVTVSWNSGALTSGVHTFPAVLQSSGLYSLSSVVTVPSSSLGTQTYICNVNHKPSNTKVDKKVEPKSCDKTHTCPPCPAPEYYWGPSVFLFPPKPKDTLMISRTPEVTCVVVDVSDEDPEVKFNWYVDGVEVHNAKTKPREEQYNATYRVVSVLTVLHQDWLNGKEYKCKVSNKALPAPIEKTISKAKGQPREPQVCTLPPSRDELTKNQVSLWCLVKGFYPSDIAVEWESNGQPENNYKTTPPVLDSDGSFFLYSKLTVDKSRWQQGNVFSCSVMHEALHNHYTQKSLSLSP
heavy 2: B1 heavy 1 with C348Y, D355C, W365S, L367A, Y406V
light: DIQMTQSPSSLSASVGDRVTITCRASQDIHKYIAWYQQKPGQAPRLLIQYTSTLQPGVPSRFSGSGSGTDYTFTISSLQPEDIATYYCLQYEQLRTFGGGTKVEIKRTVAAPSVFIFPPSDEQLKSGTASVVCLLNNFYPREAKVQWKVDNALQSGNSQESVTEQDSKDSTYSLSSTLTLSKADYEKHKVYACEVTHQGLSSPVTKSFNRGEC
notes: anti-epiregulin IgG1 called homodimerized: L234Y/L235Y/G236W/H268D/S298A in both H chains; also called H240-Kn061/H240-HI134/L73-k0
B2: H240-Kn132/H240-Hl071/L73-k0 (antibody, human IgG1, kappa)
heavy 1: B1 heavy 1 with Y233L, Y234L, W235G, D267H, A297S, K325D, A329M, K333E
heavy 2: QDQLVQSGAEVKKPGASVKVSCKASGFNIKDTYIQWVRQAPGQGLEWMGRIDPLRKQTKYREKFEGRVTITADTSTNTAYMELSSLRSEDTAVYYCVRSGREFDYWGQGTLVTVSSASTKGPSVFPLAPSSKSTSGGTAALGCLVKDYFPEPVTVSWNSGALTSGVHTFPAVLQSSGLYSLSSVVTVPSSSLGTQTYICNVNHKPSNTKVDKKVEPKSCDKTHTCPPCPAPELLGGPSVFLFPPKPKDTLMISRTPEVTCVVVDVSHEDPEVKFNWYVDGVEVHNAKTKPREEQYNSTYRVVSVLTVLHQDWLNGKEYKCKVSNDALPMPIEETISKAKGQPREPQVYTLPPSRCELTKNQVSLSCAVKGFYPSDIAVEWESNGQPENNYKTTPPVLDSDGSFFLVSKLTVDKSRWQQGNVFSCSVMHEALHNHYTQKSLSLSP
light: B1 light
notes: anti-epiregulin IgG1 called homodimerized: K326D/A330M/K334E in both H chains; also called H240-Kn132/H240-HI071/L73-k0
B3: GpH7-A5/GpH7-B78/GpL16-k0 (antibody, human IgG1, kappa)
heavy 1: not shown
heavy 2: QVQLVQSGAEVKKPGASVTVSCKASGYTFTDYEMHWIRQPPGEGLEWIGAIDPKTGDTAYSESFQDRVTLTADKSTSTAYMELSSLTSEDTAVYYCTRFYSYTYWGQGTLVTVSSASTKGPSVFPLAPSSKSTSGGTAALGCLVKDYFPEPVTVSWNSGALTSGVHTFPAVLQSSGLYSLSSVVTVPSSSLGTQTYICNVNHKPSNTKVDKKVEPKSCDKTHTCPPCPAPELLGGPDVFLFPPKPKDTLMISRTPEVTCVVVDVSHEDPEVKFNWYVDGVEVHNAKTKPREEQYNSTYRVVSVLTVLHQDWLNGKEYKCKVSNKALPLPEEKTISKAKGQPREPQVYTLPPSRDELTKNQVSLTCLVKGFYPSDIAVEWESNGQPENNYKTTPPVLDSDGSFFLYSKLTVDKSRWQQGNVFSCSVMHEALHNHYTQESLSLSP
light: DIVMTQSPLSLPVTPGEPASISCQASESLVHSNRNTYLHWYLQKPGQSPQLLIYKVSNRFSGVPDRFSGSGSGTDFTLKISRVEAEDVGVYYCSQNTHVPPTFGQGTKVEIERTVAAPSVFIFPPSDEQLKSGTASVVCLLNNFYPREAKVQWKVDNALQSGNSQESVTEQDSKDSTYSLSSTLTLSKADYEKHKVYACEVTHQGLSSPVTKSFNRGEC
notes: heterodimerized anti-glypican 3 IgG1; S239D/A330L/I332E in one H chain
B4: GpH7-A5/GpH7-B3/GpL16-k0 (antibody, human IgG1, kappa)
heavy 1: not shown
heavy 2: not shown
light: B3 light
notes: also called HeCon Ab
B5: GpH7-A57/GpH7-B78/GpL16-k0 (antibody, human IgG1, kappa)
heavy 1: B3 heavy 2 with D354K, H433R, E437K
heavy 2: B3 heavy 2
light: B3 light
notes: anti-glypican 3 IgG1 called homodimerized: S239D/A330L/I332E in both H chains
B6: GpH7-TA7/GpH7-B78/GpL16-k0 (antibody, human IgG1, kappa)
heavy 1: B3 heavy 2 with L232Y, G234W, D237S, S296A, L328A, E330I, D354K, H433R, E437K
heavy 2: B3 heavy 2
light: B3 light
notes: heterodimerized anti-glypican 3 IgG1; L234Y/G236W/S298A in one H chain, S239D/A330L/I332E in the other
B7: GpH7-TA7/GpH7-TA45/GpL16-k0 (antibody, human IgG1, kappa)
heavy 1: B3 heavy 2 with L232Y, G234W, D237S, S296A, L328A, E330I, D354K, H433R, E437K
heavy 2: B3 heavy 2 with L232Y, G234W, D237S, S296A, L328A, E330I
light: B3 light
notes: anti-glypican 3 IgG1 called homodimerized: L234Y/G236W/S298A in both H chains
B8: GpH7-TA7/GpH7-B3/GpL16-k0 (antibody, human IgG1, kappa)
heavy 1: B3 heavy 2 with L232Y, G234W, D237S, S296A, L328A, E330I, D354K, H433R, E437K
heavy 2: not shown
light: B3 light
notes: heterodimerized anti-glypican 3 IgG1; L234Y/G236W/S298A in one H chain
B9: H240-G1d-CD/H240-G1d-CD/L73 (antibody, human IgG1, kappa)
heavy: QDQLVQSGAEVKKPGASVKVSCKASGFNIKDTYIQWVRQAPGQGLEWMGRIDPLRKQTKYREKFEGRVTITADTSTNTAYMELSSLRSEDTAVYYCVRSGREFDYWGQGTLVTVSSASTKGPSVFPLAPSSKSTSGGTAALGCLVKDYFPEPVTVSWNSGALTSGVHTFPAVLQSSGLYSLSSVVTVPSSSLGTQTYICNVNHKPSNTKVDKKVEPKSCDKTHTCPPCPAPELLGGPSVFLFPPKPKDTLMISRTPEVTCVVVDVSHEDPEVKFNWYVDGVEVHNAKTKPREEQYNSTYRVVSVLTVLHQDWLNGKEYKCKVSNKALPAPIEKTISKAKGQPREPQVYTLPPSRDELTKNQVSLTCLVKGFYPSDIAVEWESGCRGDCLPENNYKTTPPVLDSDGSFFLYSKLTVDKSRWQQGNVFSCSVMHEALHNHYTQKSLSLSP
light: B1 light
notes: anti-EREG antibody with the RGD peptide inserted in the CH3 regions (control)
B10: H240-Kn125-CD/H240-Hl076/L73 (antibody, human IgG1, kappa)
heavy 1: B2 heavy 2 with D269E
heavy 2: B9 heavy with L233Y, L234Q, G235W, S238M, H267D, D269E, S297A, Y348C, T365W
light: B1 light
notes: heterodimerized anti-EREG antibody with the RGD peptide inserted in a CH3 region (control); also called H240-Kn125-CD/H240-HI076/L73

These binders were tested against T1, FcγRIIIa(F) extracellular domain with C-terminal His tag (human, UniProt P08637 17-208) (assay: SPR (Biacore), captured antibody, FcγR analyte, 1:1 Langmuir fit;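 also: surface plasmon resonance at 25 °C in HBS-EP+ running buffer, antibody captured on sensor chip, FcγR flowed over as analyte in the same buffer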).
T1 construct: extracellular domain; polymorphic form F158; also called FcγRIIIa F type
T1 sequence (P08637 other isoform, or with tags, fused parts or gaps): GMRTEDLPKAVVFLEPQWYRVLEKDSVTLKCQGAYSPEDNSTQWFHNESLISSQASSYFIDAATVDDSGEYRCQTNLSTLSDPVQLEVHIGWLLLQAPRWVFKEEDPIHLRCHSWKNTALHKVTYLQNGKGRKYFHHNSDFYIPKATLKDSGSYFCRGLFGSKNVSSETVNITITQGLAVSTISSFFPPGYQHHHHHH
Protocol: (§1) The antibody of interest was analyzed for its interaction with FcγR using a BiaCore™ T100, BiaCore™ A100, or BiaCore™ 4000 surface plasmon resonance system (GE Healthcare Japan Corp.). The running buffer used was HBS-EP+ (GE Healthcare Japan Corp.). The assay temperature was set to 25° C. The sensor chips used were: a chip prepared by immobilizing antigenic peptides onto Series S Sensor Chip CM5 (GE Healthcare Japan Corp.) by the amine coupling method; a chip prepared by immobilizing antigenic peptides biotinylated in advance onto Series S Sensor Chip SA (certified) (GE Healthcare Japan Corp.) through their interaction; a chip prepared by immobilizing protein L (ACTIGEN, BioVision, Inc.) onto Series S Sensor Chip CM5 (GE Healthcare Japan Corp.); and a chip prepared by immobilizing protein A/G (Thermo Fisher Scientific K.K.) onto Series S Sensor Chip CM5 (GE Healthcare Japan Corp.). The antibody of interest was captured onto any of these chips and allowed to interact with FcγR diluted with a running buffer. The antibody captured on the chip was washed off through the reaction of 10 mM glycine-HCl (pH 1.5) to regenerate the chip, which was repetitively used.

Binder | Kd [nM]
B1 | 660
B2 | 77

The binders below were run against T2, FcγRIIIa(V) extracellular domain with C-terminal His tag (human, UniProt P08637 17-208) in the same assay as above.
T2 construct: extracellular domain; polymorphic form V158; also called FcγRIIIa V type
T2 sequence (P08637 other isoform, or with tags, fused parts or gaps): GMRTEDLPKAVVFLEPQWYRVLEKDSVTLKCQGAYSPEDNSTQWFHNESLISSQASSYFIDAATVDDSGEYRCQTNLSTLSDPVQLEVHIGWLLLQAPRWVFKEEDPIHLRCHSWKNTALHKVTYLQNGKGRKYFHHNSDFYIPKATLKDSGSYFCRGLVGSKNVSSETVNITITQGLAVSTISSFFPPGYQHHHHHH
Protocol: as §1

Binder | Kd [nM]
B1 | 86
B2 | 16

Each binder was assayed against T3, FcγRIIIa extracellular domain with C-terminal His tag (allotype not given) (human, UniProt P08637 17-208) (assay: SPR; KD of GpH7-G1d/GpL16-k0 for FcγRIIIa divided by KD of this antibody).
T3 construct: extracellular domain; also called 3a

Binder | KD ratio1 [fold]
B3 | 23
B4 | 0.75
B5 | 199
B6 | 261
B7 | 0.37
B8 | 3.8

What follows are binders tested against T3, FcγRIIIa extracellular domain with … (assay: SPR; KD of GpH7-A5/GpH7-B3/GpL16-k0 for FcγRIIIa divided by KD of this antibody).
Protocol: as §1

Binder | KD ratio2 [fold]
B3 | 30
B4 | 1
B5 | 263
B6 | 347
B7 | 0.49
B8 | 5.1

These binders were tested against T3, FcγRIIIa extracellular domain with … (assay: SPR (Biacore), captured antibody, FcγRIIIa analyte, 1:1 Langmuir fit).
Protocol: as §1

Binder | Kd [nM]
B3 | 54
B4 | 1600
B5 | 6.2
B6 | 4.7
B7 | 3300
B8 | 320

What follows are binders tested against T4, FcγRIIIa (human, UniProt P08637 17-208) (assay: SPR (Biacore T100), antibody captured on protein L chip, FcγRIIIa as analyte, TBS(+), 25 C, 1:1 Langmuir fit).
T4 construct: extracellular domain; also called 3a
Protocol: Specifically, their interaction with FcγRIIIa was analyzed using BiaCore™ T100 surface plasmon resonance system (GE Healthcare Japan Corp.). The running buffer used was the TBS(+) solution used in the preceding paragraph. The assay temperature was set to 25° C. Protein L was immobilized onto Series S Sensor Chip CM4 (GE Healthcare Japan Corp.) by the amine coupling method to prepare a chip. Each antibody of interest was captured onto the protein L-immobilized chip and allowed to interact with FcγRIIIa diluted with a running buffer. The antibody captured on the chip was washed off through the reaction of 10 mM glycine-HCl (pH 1.5) to regenerate the chip, which was repetitively used.
Each antibody was evaluated for its binding activity against FcγRIIIa with binding activity against FcγRIIIa and dissociation constant for FcγRIIIa as main indexes. […] Specifically, a sensorgram obtained by assay using BiaCore™ surface plasmon resonance Evaluation Software was globally fit into the 1:1 Langmuir model to calculate an association rate constant ka (L/mol/s) and a dissociation rate constant kd (1/s). From these values, the dissociation constant KD (mol/L) was calculated.

Binder | Kd [nM]
B9 | 310
B10 | 0.85

From patent US20260167699A1 (Chugai, published 2026)
